Experimental findings from patent publication US20220332804A1 (CSL INNOVATION, published 2022) are described below.

Assay in all cases: SPR, KD relative to WT C2;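 further: biacore SPR at 37 °C, anti-C2 mAbs captured via immobilised goat anti-human IgG, C2 alanine or serine surface mutants as analytes, 1:1 model fitted, double-referenced sensograms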
For orientation: In SPR one partner is held on a chip, and binding of the other changes the refractive index at the surface.

The target in one assay is T1, human C2 K274A (human, UniProt P06681 21-752).
T1 sequence: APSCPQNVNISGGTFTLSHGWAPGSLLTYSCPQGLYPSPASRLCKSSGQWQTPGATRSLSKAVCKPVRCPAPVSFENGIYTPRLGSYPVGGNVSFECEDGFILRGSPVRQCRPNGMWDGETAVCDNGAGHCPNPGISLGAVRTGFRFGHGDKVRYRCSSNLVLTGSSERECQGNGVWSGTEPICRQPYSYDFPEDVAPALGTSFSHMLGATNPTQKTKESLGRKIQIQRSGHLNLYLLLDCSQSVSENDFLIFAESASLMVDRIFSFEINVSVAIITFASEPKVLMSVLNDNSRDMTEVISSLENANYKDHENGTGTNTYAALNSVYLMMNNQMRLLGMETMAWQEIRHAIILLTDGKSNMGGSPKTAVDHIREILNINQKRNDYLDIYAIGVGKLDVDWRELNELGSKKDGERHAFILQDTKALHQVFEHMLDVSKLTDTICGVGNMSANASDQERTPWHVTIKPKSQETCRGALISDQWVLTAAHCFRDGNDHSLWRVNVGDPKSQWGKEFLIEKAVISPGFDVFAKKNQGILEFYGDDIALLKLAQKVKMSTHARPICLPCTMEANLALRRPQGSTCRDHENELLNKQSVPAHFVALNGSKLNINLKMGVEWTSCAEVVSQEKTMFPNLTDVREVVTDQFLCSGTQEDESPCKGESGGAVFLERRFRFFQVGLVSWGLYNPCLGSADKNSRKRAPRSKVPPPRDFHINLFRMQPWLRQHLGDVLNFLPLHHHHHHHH

For a further assay, the target named is T2, human C2 D404A (human, UniProt P06681 21-752).
T2 sequence: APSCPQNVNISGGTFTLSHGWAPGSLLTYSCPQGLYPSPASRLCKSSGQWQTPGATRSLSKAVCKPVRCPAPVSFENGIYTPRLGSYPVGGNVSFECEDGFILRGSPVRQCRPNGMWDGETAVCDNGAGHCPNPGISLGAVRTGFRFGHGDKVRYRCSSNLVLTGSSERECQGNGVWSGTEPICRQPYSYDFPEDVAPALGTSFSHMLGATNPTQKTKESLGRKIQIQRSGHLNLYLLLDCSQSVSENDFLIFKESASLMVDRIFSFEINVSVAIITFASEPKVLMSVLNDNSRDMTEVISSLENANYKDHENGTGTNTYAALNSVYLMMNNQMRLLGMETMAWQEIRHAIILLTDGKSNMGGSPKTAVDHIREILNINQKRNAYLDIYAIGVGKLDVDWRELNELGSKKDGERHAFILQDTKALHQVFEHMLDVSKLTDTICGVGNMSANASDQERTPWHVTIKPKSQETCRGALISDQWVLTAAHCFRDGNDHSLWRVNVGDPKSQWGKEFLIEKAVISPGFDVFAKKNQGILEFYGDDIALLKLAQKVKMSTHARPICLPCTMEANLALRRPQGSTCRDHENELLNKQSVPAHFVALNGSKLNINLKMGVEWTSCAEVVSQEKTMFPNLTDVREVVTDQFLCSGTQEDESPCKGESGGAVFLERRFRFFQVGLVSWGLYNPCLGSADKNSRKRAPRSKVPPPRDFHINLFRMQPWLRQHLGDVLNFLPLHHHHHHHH

Another assay has as its target T3, human C2 A717S (human, UniProt P06681 21-752).
T3 sequence: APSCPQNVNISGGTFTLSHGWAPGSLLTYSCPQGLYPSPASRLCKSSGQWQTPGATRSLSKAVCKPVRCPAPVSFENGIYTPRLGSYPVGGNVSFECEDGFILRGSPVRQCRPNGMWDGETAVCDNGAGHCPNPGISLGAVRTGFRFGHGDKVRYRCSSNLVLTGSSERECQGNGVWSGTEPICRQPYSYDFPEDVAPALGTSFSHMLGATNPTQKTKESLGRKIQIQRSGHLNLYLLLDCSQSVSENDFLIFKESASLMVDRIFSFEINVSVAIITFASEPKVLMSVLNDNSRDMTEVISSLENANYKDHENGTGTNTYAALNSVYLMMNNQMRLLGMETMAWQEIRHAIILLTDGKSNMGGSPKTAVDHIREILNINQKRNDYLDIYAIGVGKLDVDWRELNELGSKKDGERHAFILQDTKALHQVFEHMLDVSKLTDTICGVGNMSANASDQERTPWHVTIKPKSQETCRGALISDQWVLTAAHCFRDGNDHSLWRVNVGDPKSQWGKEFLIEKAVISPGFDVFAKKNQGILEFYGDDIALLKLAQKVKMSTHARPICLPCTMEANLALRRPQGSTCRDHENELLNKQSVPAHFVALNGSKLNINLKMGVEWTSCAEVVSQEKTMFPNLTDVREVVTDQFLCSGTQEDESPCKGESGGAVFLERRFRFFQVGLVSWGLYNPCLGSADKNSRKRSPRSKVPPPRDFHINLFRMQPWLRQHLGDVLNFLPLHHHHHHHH

A further assay has as its target T4, human C2 P486A (human, UniProt P06681 21-752).
T4 sequence: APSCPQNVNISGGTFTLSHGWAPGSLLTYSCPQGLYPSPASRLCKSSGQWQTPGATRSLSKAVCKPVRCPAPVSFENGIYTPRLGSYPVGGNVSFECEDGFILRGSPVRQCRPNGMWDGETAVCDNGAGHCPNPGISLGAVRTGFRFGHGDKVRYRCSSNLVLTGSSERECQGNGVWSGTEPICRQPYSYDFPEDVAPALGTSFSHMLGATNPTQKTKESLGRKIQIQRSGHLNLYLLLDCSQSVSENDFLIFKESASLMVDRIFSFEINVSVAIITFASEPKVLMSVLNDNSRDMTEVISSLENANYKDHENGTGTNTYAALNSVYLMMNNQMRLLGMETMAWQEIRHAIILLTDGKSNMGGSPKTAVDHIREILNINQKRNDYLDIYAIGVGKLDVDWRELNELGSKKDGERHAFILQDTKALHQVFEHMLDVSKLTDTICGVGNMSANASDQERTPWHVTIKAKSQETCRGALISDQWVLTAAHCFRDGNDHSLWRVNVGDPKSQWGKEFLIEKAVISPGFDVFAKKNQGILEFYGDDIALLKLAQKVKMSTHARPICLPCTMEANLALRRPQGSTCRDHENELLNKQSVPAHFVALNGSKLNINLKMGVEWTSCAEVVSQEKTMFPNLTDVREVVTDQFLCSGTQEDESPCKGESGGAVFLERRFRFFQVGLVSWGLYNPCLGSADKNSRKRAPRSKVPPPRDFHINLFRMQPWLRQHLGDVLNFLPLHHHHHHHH

B1: RF16-226 (antibody, human IgG4 S228P, lambda)
heavy: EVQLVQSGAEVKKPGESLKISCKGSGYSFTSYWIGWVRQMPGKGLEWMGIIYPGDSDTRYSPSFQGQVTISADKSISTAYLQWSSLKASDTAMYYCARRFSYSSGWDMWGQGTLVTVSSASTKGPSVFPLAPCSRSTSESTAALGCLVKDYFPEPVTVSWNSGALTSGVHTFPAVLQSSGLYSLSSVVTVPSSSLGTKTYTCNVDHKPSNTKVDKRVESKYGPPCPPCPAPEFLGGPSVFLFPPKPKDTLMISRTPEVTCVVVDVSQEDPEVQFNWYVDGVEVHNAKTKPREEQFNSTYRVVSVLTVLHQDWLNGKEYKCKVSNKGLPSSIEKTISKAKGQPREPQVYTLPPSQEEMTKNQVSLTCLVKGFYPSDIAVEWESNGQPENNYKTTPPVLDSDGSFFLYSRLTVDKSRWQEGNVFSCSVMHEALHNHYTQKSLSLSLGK
light: SYELTQPPSVSVSPGQTARITCSGDALTSKYVAWYQQKSGLAPLLVIYEDTRRPSGIPAKFSGSSSGSVATLTISGAHGDDEADYYCYSTDASGHQRVFGGGTKLTVLSQPKAAPSVTLFPPSSEELQANKATLVCLISDFYPGAVTVAWKADGSPVKAGVETTKPSKQSNNKYAASSYLSLTPEQWKSHRSYSCQVTHEGSTVEKTVAPTECS
notes: pH-dependent anti-C2 antibody from a phage display library; also called WT
As to B1, the Fold diff with human C2 K274A stood at 29 fold; with human C2 D404A, 1 fold; with human C2 A717S, 41 fold; in the assay with human C2 P486A, 1 fold.
